Patent US20260125443A1 (APRILBIO, published 2026)

How the values were obtained:
[1] = target: T1, human follicle stimulating hormone receptor (human, UniProt P23945 18-695); assay: flow cytometry on human FSHR stable HEK293 cells, detection with goat anti-human IgG Fd-FITC
T1 construct: whole, on cells; also called human FSHR; human FSH receptor
T1 sequence (looked up): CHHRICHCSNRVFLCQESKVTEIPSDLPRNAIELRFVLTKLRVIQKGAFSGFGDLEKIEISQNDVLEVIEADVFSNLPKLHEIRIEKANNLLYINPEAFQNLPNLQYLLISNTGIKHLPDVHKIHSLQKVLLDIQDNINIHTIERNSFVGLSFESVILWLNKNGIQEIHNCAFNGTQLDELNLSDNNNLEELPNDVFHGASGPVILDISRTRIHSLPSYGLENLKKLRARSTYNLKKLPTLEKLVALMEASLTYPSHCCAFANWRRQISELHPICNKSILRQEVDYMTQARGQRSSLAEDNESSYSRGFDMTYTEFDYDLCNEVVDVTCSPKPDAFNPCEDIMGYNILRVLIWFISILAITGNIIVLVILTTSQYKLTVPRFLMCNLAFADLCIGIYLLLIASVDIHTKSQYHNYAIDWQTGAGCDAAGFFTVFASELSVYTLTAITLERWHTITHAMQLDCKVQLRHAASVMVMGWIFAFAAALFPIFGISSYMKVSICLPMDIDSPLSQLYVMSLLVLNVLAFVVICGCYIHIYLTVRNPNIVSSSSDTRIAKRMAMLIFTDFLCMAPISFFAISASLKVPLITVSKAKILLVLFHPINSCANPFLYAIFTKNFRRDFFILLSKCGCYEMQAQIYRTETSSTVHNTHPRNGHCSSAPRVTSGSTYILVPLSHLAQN
Method: By using a human FSHR stable cell line (HEK293, Creative Biogene, USA) expressing human FSH receptors on the surface, the binding between the SAFA-FSH protein and the FSH receptors was analyzed with a CytoFLEX flow cytometer (Beckman Coulter, USA).
Subsequently, the binding between the SAFA-FSH protein and the human FSHR was confirmed by using the human FSHR stable cell line in which the expression of human FSHR was confirmed. Specifically, the human FSHR stable cells were dissolved in MACS buffer (PBS containing 0.5% BSA and 2 mM EDTA) at a concentration of 1×10⁶ cells/ml, and then added in an amount of 100 μl (1.0×10⁵ cells/test) to a 1.7 ml tube. The cells were then centrifuged at 500×g at 4° C. for 5 minutes. After removing the supernatant from the 1.7 ml tube, 100 μl each of the SAFA-FSH protein and the SL335 fragment that were diluted with MACS buffer at a concentration from 1,000 nM to 0.064 nM was added to the same tube to proceed a reaction at 4° C. for 30 minutes. After 500 μl of MACS buffer was added to the tube and the cells were centrifuged at 500×g at 4° C. for 5 minutes, the supernatant was removed therefrom to remove unbound proteins. 100 μl of goat anti-human IgG Fd-FITC (Southern Biotech, USA) antibody diluted with MACS buffer at a ratio of 1:500 was added to the tube to proceed a reaction at 4° C. for 30 minutes. […]

human serum albumin [2] = target: T2, human serum albumin (human, UniProt P02768 25-609); assay: BLI (Octet Red), HSA immobilised on AR2G sensor, pH 7.4
T2 construct: Immobilised on an AR2G biosensor; also called HSA; human serum albumin (Sigma)
Method: (§1) By using Bio-Layer Interferometry (BLI) and Octet® BLI systems (Octet® Red, Sartorius, Germany), the binding ability of the SAFA-FSH protein to human serum albumin was analyzed. On an AR2G biosensor chip (Sartorius, Germany), human serum albumin (Sigma) was immobilized at a concentration of 30 μg/mL with a 10 mM acetate buffer pH 5.0, and the SAFA-FSH protein was added thereto at concentrations of 6.25 nM, 3.125 nM, 1.56 nM, and 0.78 nM (association: 600 s, dissociation: 900 s), so as to confirm the binding ability between the two under conditions of pH 7.4 or pH 6.0 conditions.

human serum albumin [3] = target: T2, human serum albumin; assay: BLI (Octet Red), HSA immobilised on AR2G sensor, pH 6.0
Method: as §1

T2 sequence (P02768 25-609 limits assumed): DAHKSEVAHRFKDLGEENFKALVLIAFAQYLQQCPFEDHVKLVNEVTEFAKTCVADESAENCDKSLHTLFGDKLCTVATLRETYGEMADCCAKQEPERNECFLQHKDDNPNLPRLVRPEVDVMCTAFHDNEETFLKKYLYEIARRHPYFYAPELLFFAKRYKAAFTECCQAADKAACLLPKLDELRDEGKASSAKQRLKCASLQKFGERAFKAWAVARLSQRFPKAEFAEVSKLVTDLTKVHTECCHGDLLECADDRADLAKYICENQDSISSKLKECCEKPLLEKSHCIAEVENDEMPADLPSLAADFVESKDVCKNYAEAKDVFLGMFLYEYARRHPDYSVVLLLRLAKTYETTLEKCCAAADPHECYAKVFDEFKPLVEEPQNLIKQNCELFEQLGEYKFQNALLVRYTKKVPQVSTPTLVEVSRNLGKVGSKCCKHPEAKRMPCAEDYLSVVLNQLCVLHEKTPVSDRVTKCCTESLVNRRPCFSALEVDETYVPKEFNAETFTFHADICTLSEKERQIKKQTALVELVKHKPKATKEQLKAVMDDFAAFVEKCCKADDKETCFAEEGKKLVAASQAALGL

B1: SL335 fragment (Fab, V domains shown)
VH: QVQLVQSGGGPVKPGGSLRLSCAASGFMFRAYSMNWVRQAPGKGLEWVSSISSSGRYIHYADSVKGRFTISRDNAKNSLYLQMNSLRAEDTAVYYCARETVMAGKALDYWGQGTLVTVSS
VL: DIVLTQSPGTLSLSPGETATLSCRASQSVGSNLAWYQQKPGQAPRLLIYGASTGATGVPARFSGSRSGTDFTLTITSLQPEDFATYYCQQYYSFLAKTFGQGTQLEIKR
notes: Fab without FSH, used as the control in the FSHR flow cytometry assay; also called human anti-serum albumin Fab antibody fragment
B1: no binding (tested: 1000 nM) [1].

B2: SAFA-FSH-B protein (other)
heavy: QVQLVQSGGGPVKPGGSLRLSCAASGFMFRAYSMNWVRQAPGKGLEWVSSISSSGRYIHYADSVKGRFTISRDNAKNSLYLQMNSLRAEDTAVYYCARETVMAGKALDYWGQGTLVTVSSASTKGPSVFPLAPSSKSTSEGTAALGCLVKDYFPEPVTVSWNSGALTSGVHTFPAVLQSSGLYSLSSVVTVPSSSLGTQTYICNVNHKPSNTKVDKKVEPKSSGGGGSGGGGSGGGGSNSCELTNITIAIEKEECRFCISINTTWCAGYCYTRDLVYKDPARPKIQKTCTFKELVYETVRVPGCAHHADSLYTYPVATQCHCGKCDSDSTDCTVRGLGPSYCSFGEMKE
light: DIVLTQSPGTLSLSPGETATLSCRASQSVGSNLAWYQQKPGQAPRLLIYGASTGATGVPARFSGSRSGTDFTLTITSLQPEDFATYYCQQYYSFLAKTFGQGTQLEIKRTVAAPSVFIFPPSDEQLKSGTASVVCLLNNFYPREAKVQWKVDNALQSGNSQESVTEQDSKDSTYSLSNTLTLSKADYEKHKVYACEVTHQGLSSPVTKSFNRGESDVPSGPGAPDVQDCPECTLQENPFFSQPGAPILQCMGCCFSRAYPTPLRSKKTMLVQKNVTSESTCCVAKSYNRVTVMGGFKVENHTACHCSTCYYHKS
notes: Anti-serum-albumin Fab SL335 with hFSH beta on the C-terminus of CH1 and hFSH alpha on the C-terminus of CL; also called SAFA-FSH protein; recombinant fusion protein
With B2 the Kd (human serum albumin [2]) was 0.359 nM, the koff (human serum albumin [2]) was 0.000136 s⁻¹ and the kon (human serum albumin [2]) was 379000 M⁻¹ s⁻¹. It also gave a Kd (human serum albumin [3]) of 0.313 nM, a koff (human serum albumin [3]) of 0.000149 s⁻¹ and a kon (human serum albumin [3]) of 475000 M⁻¹ s⁻¹.
